Test results taken from a protein production outcome set (Wang et al. 2014).

Test: label from the status in PepcDB records
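Note: failed if final PepcDB status was selected cloned or expressed and not failed if soluble or beyond.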

Sequence | protein production
MTWLLIFASLAYVIFLFAVATWGDRLGSWANKISHKPVVYSMSLAIYCTSWTYYGAVGNAAVDGWAFFPILLGPILLFLFGIRILEKLVSVSKQQNITSIADFISSRFGKRRRLAVAVTAIAAVAIIPYIALQLKAVGISFAVLTESSGVMAQFSIKELGAAALMAIFAMLFGTRHVEVTEYRSGMILAIAVESMIKLVALLAAGVFAWFLIQGDAQSDLFSSFSDATKPQWSFAAFGEFEFIVQTLMAAGAILCLPRQFHVAVVDNVDVRHLRTARWGFPLYLALTAAAIVPIAIAGTFYLSATTDGSTFALQLPLLKDQLWLSLVIFIGGISAATAMVIIASVTLSTMITNDVIMPILLQRESRLPLKHRRREYDRALLLIRRVAIAVTMVLSFLCYYFWAARTNLVSIGLLAFSLVLQLLPALLAALYWRKGHARGVYAGLAAGSVGWVLAVLIPLYTDLQLTDVEIITRGTVVSLALNCFGFIVFSLLAKPRLVDRIQATAFVKPRAALPDLHFNKNDSATNADMLLLLRTFLGAERAQQLMQYYQRPENTELPLEGVAEKTFISFVERAIAGVLGSATARSLVDAALRDKQLNLEEVVHFFDDTTQALQTQQSILFSSLENLAQGISVVDAELRLVAWNKRYMDLFQYPEGMVKPGQPIATLIRYNAERGECGPGDVDGLVNKRLRYMQLGSAHRFIRRRADGRVIEMVGNPLPTGGFVTSFTDITSHVETQQALEDANIDLEQRVDVRTQEIREINQELTAEIDRRRQVEDELKKAKAEAEATNASKTRFLALASHDILQPLNAARLYLSAIQEKELSERNLSLVGKLDTALGSTEHLLSTLLSIAKMDQGALKPQFRHVQLSSLLEPLVEEYAVLAEQRKLDFRAFYKDRPVYTDPTYLRRIVQNFLSNAIKYTQRGSVLLGVRKRGDELQIAVWDTGPGIAAQQQNKVFDAFYRVQNQTVDGVGLGLSVAQRMGEQLNCDVQVESVEGKGSCFSVRVPLGNAAQVVSRPKKQLEDALSDPLQLIVVDDDNENLSALSALLNKWGCEALTFNRYSKALAYAKAHSQNKAPHGLLLDYQLGDGDGLQLAQELRDIWQQQIPAALVTAMRDDAVKQAARKSGLQFLPKPAKPAALKAFLKYISTRKAGGARS | failed
MTWLMVAVVVVVAAAGLLRWRRPAWYWLTFGALVATVRILVRYASVMEACGLTVPPSRWRLALARMTNRPAPESRPPRILRLRPTRTGLVLRLKLQPGQDAFDVAAATDRLRHSFGVYGVTSRELRSGVVEVRMTGYDVLQRVQMPAPAEPRPMRIPVALREDGAVHYRDYRAVPHGLTLGATESGKSVYQRNLVAGLAPHHVALVGIDCKQGVELFPLARRFSALADNPDTALDLLEALVGHMKDVYQLIRAEQRISVAVPDAEIAADIWDLREDLRAVPVVVLVDEVAELALFASKDEEKRRDRIITALVRLAQLGRAAGIYLEICGQRFGSELGKGITMLRAQLTGRTAHRVNDETSADMAFGDLSPDAVLAAIQLPTDTPGIAVTGDSTGGWARIRAPHTTKSFPDRQKRLAELWLIEIASDMSRGRYVDPRAARVTFKGYAVKWLETHGIDPASQVVVEQRLRLHAFRLIGSRPLDSFRPEHIRGLVSALENDPAVSGGYARNIYGDVRAVLSAAVDDGLLPRNPCSAKSVRPPAVEQRRVVPWLPEQVQAVRAALPQRYRPMVDMGAGCGLRQGEIVGLAEDAVDFASGIVRVLRQVKLIRGKAVFAPPKCNKERDVPLPPSVADALPAHMDAFKPVEITLPWRKPDGPKVSARLLFTNTASGLVWRSNFNVQEWKPALAAAGLISEAGADGKYESAREHGMHALRHFYASVLLDAGESIKAVSEYLGHADPGLTLRVYAHLMPSSQERTRSAIDQSLRFSG | failed
MTWRKLSICMMVKDEEKNLKRCLESLKPILKGDEVELIVVDTGSKDRTVEIAKQYTNNIFYKPWNYNFSEMRNYTISLAKGEWIFILDADEELEDAKIILKEIEMAEKEGANAINIAVKNLVEENNKQNFVFGFSPRLFRNGFIKYEGAVHNQPIFRPPIYNSKIVIYHYGYIMNDTKLMEYKYKRTVSLLKKELEKDPLNIYYRYQLGVSYSMYGKIREAIEEFGKVYNLLKMENSEIKKGLVVVYGLYANNLLLLGLFDKALEVAEEGLNFNDEYIDLYYIAGLSLYAMGRRQEALVYFKKYMDLFKKVDQIKLLYDARVVFYNISNSYFDNVNAMVVQYLLDINNFLEAKVHIEQFKDNKLKLQYSTLLHIKEKNFNELFDFYSSCNQEDKEKVSEFIEKYITYFKFDEDERLEIYKKFSESNDVYGKYCCIITKKEKVESAILNIFDSNVFELLPSFYTKVLFRVAEKKEFLLETLKKIDVMVLRAKTAEALAAKFIDFEDVIQLLEVMKKEKADIDISARYIALALLVLLNFPRQSDERLYEIFLNYTENGILLISRLYKSEEIEEKYRYFLSEEEKYFALMYMIYLSLQEKRMDKSIKYLREAISTMPKLVKHLKRFSKDILGVDV | failed
MTWSHWEITPFITSVFFILGVLTLFWVSQNWIINFFNTHHWRVDQSLITDWYGLIYMMLFVFGMQTAVVGQNDAWIFMNFQLIGLTFCGYFLNVRVRYYYLYPLVFIFMGFNHSLYYWESWGHAVTLILFFTALGRLRKHVPLQTKQGQVTLYLVTCAGFGAVLWWFMKLKFNLSWATYWQEWTYLLVFASLLYIYASMLSANAHLKQNLVAFANHDALTKIENFAAYKTAINYQVTSSRKNGSQLTMLMFDIDHFKQVNDTYGHLAGDKILQHVAQVATIVFHANNPQISLYRTGGEEFNVIFPNYDLTEALAVAEQLFAAINHIAVPVNDHQIQLSISIGLSELAADDQSPTAFYQRVDANLYHSKKHGRMQITAK | failed
MTYCVAMRLDAGLVFLSDSRTNAGVDAISTFRKMTVFEREGDRVMVLLTAGNLAISQAVRQVLTEARDKARSLWTARDMFEATTIVGEAVREVYDRDAAALAKAKIDFNVSIIFGGQIGGERPRLFNVYAAGNFIEATPENCYFQIGEAKYGKPIIDRLIRASLPLDEAAKCALISMDSTLKSNISVGLPLDLLVYEADSLRVTRFVAIDEENPYFAMIRSTWGKRLRQVFAEIEDPDWQTGTHPAHPLRRAGHPTAEVEPVRIAPPAAPPAAEGAAVPQRAPGPAFGQGAAAQRVAGGSHEPH | failed
MTYDLTVIIPVYNTEKYLRRCLESIVNQDDIEQCSIKVICINDGSTDESRKIIEEFVEKYSYIEIFNKENGGLADVRNTGLQFINDSLYTVSLDSDDFWDKSFLTEFNKYKSSNYDLIFFDINLVDCDGNPVKELIVNPKFDKYNKKKDFMVVKHAAWSKICRTNLYDNINFPKGKLYEDLAVMPYLTSRAERIHYIQKPLINYVINTPGSIMNSSKSNIFDIYDSLIHLFNLFGNHFEKYRNELQYLAIEHLCVGHTYRLLNYPEATKQDFKDIVIFMEKYFGKHWDKNKYVKRGVQKVNINSSLSYVVPVFLKFLKYGGIIKLYDIKRVLLSKK | failed
MTYEIVIAGFGGQGVLSMGKILAYSGLMEDKEVSWMPSYGPEQRGGTSNVTVIVSDEQVSSPVLNEYDIVIVLNQPSLDKFEARVKKGGILVYDPDSIVLKNKRDDIQIYEVDATQESLRMGNQK | failed
MTYHASTPSTPLLVTGGTGTLGGHVVPLLREAGHDVRVLTRRTRPATGNGITYVTGDLRTGEGVEAAVDGVHTVLHLAGGPKGDDEATRTLVRAAARADVRHLAYISVVGADRVPLAWLRTKLESERAIADSGLGWTVLRAAQFHELTLTMIEKMTRLPVLPVPGGLRLQPVAAREVAVRLAELTLAEPSGRVPDMTGPEVLDLATLAHSYLDLRGGRRRPKLPVRIPGKAGRAYRSGQNLTLEDALVGKVTWTEFLAERAAV | failed
MTYKDYTGLDRTELLSKVRHMMSDKRFNHVLGVERAAIELAERYGYDKEKAGLAALLHDYAKELSDDEFLRLIDKYQPDPDLKKWGNNIWHGLVGIYKIQEDLAIKDQDILAAIAKHTVGSAQMSTLDKIVYVADYIEHNRDFPGVEEARELAKVDLNKAVAYETARTVAFLASKAQPIYPKTIETYNAYIPYLD | not failed
MTYKVFIDGEAGTTGLQIRARLEGRDDIRLITLGDADRKDTRARLAAFDAADVGILCLPDAAAVEIVAQLAGTGTRLIDASTAHRVDPGWVFGFAELDNDLRARIAGGQFVSNPGCYSTGAIALLHPLVKRGLIAADQALAINAISGYSGGGKAMIAEFESGKTDGPFVYATEQRHKHLPEIVAHAGLTRQPVFVPSVGPYEQGMIVQVPLPFVEPGQGAAIEAALADHYATSRFVSVVSPDHYGARIDPRRLNGTNQLELSVHGNLDTGGAVLLALLDNLGKGASGAAVQNLNIMLGLDEGLGL | failed
MTYMNNEVTTKASKQRLEVHKPRPIFFETLTITQIQIFMQSYSRLMQFKVKDLMIDKRRLVEVPDNATLGDALNTMTILGIKPVANRVRAVPVAAKPGQWLGAGGSMIVELDKQSGSARKQYIGMVTMLDVVAHIAGDDGESGLDKKMAAPVSSIIGHCPEGLSLWSLNPNTSIMDCMEMLSKGIHRVLVPLDSNTENITGPELVESASAYAMLSQMDLISFFFDQSSQLHGILSHTVTDLSAIHNTVLALTSQARVKDAIQCMSIAMLNAVPIVEASGEGEDHKQLVDGKNRRVVGTFSASDLKGCHLATLRSWLPLNALEFVEKIPRTLLFTAATSTPGRELVTCHVTSTLAQVIHMVTTKRVHRVWVVDQNGGLQGLVSLTDIIAVVRSALLSGAPDLF | failed
MTYNKIMSAAESMEDGIEDMENNLESWGDDMNEYFGDEYEKAETISLDGIKNFFLKAEVGEVKIEISDRADEASYKIQRINPKYFDVEKKGDTISFEDNTPSKFFKNLGFNFKNNSPKIYISLPRNIVFNNFEIKSGVGELDIHDINVEKFNLSAGVGEVNIYDAKISKDAEIKAGVGEVNFKDSTVTNMDIKSGVGSFSFSGTALGKTSVKGGIGEVDLKINGSEKDYDFDVSAGLGEVIINGKKSKTFLADRQKSGSIAQNSITVKGGIGSISIRFKNLEHHHHHH | failed
MTYQALMFDIDGTLTNSQPAYTTVMREVLATYGKPFSPAQAQKTFPMAAEQAMTELGIAASEFDHFQAQYEDVMASHYDQIELYPGITSLFEQLPSELRLGIVTSQRRNELESGMRSYPFMMRMAVTISADDTPKRKPDPLPLLTALEKVNVAPQNALFIGDSVSDEQTAQAANVDFGLAVWGMDPNADHQKVAHRFQKPLDILELFK | not failed
MTYRAEVDGLRAIAVTLVILFHSGVEQFAGGFIGVDVFFVISGYLITTIVINDLENQKFSLGDFYERRIRRILPLLLVVIAVSYLMSWWLFLPQAHKDVGQLAVSSILSSSNILLYLKGHNYFGLEDQANPLFHTWSLGVEEQYYIVIPLLLMLLARGKNAFYLTFFIAVFALSLMAIVYTSNDPDFAFYMIFSRAWELATGSLLALVMRKAQVQSNDTLATIGIVLILASALLFEKSQDGAGITLLVPVIGSALVILFASKDNVCGKLLSLKWVVFVGLISYSLYLWHIPLFVFYRYMLDATQDVNISLYIAALFVLSYFTWRFVEKPFRSRKAMSMRTVSAVVVLLTLPLLTFGVIGHQNGGFPERSAFFEAMRINNGYGLDCNGNTDVNDVCSSAPQPTIAVLGNSHSMVYVKRLSEVTPTGVVQLTQDSCAVGYVDILEAAGSISCRQFFKQAVDTILRTPSIRRVVISSNFNKELSQADYEASLTGLLNELEGKEVVVFGPTPSAPFAVGECLWKARLFGEQEESVCDFSPKRHHPQNVAKLVNYFDRFEHVEFVDLTDAICRNGVCRMKVGANNAMYTDDSHLSYKGAELVLGHYHNSTNETQQFTYDRQ | failed
MTYRDFIGRLKENGKLVEIQQPVSPIFEASRIAKKTKGPVLFHNVSGSKVIMNLLGSRDELSSMLGVPKEEIIKKLSEVSPEGEVRLVPGSPTLEVIESEVDLTKLPILTHFEKDGAPYITAGIVVSEYEGVMNASIHRLMLVGKDKLAARLVPPRHTYLLHKKAAEKGETLPVAIVLGCDPTIIYATSTRVPAGKEFEYAAALRGTPVEVFECSNGIKVPHSEIILEGYIDTKERVDEGPFVDITGTYDMVRKEPVIHITRIIHRKDPIYHGILPAGPEHLLMMGVPYEPRIYRAVGEVTTVKNVVLTEGGCCYLHAVVQIEKQTEGDAKNAIMAAFAAHTSLKHVVVVDEDINIFDPNDVEFAIATRVKGDMDILTITNVRGSSLDPRGASDGTTTKVGIDATKVLIEKENFERAIIPEELEHHHHHH | failed
